Data reported in PMC11077763.

Biological target: murine TRIM66 PHD-Bromodomain (a.a. 996-1,185) (mouse) (UniProt Q924W6)
Assay: ITC; 800 uM to 2.4 mM peptide in the syringe injected into 30-50 uM mTRIM66 PHD-Bromodomain in the cell; 25°C; 20 mM Tris pH 7.5, 100 mM NaCl; single-site binding model; triplicate

UniProt Q924W6, sequence (Q924W6 996-1185): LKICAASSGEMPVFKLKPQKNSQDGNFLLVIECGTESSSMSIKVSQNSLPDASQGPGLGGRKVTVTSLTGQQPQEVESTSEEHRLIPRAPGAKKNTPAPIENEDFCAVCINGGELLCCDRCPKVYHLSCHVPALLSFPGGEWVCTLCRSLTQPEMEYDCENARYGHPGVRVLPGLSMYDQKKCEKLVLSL

H3 (1-30) K4me3 (from UniProt P68431 2-31) (peptide)
Kd: 59.5 µM

H3 (1-30) K4me3+K18Ac (from UniProt P68431 2-31) (peptide)
fold decrease of the binding affinity against the unmodified H3 tail: 7.1 fold
fold increase of the binding affinity against H3K4me3 alone: 2.4 fold

H3 (1-30) K9me3+K18Ac (from UniProt P68431 2-31) (peptide)
Kd: 1.3 µM

H3 (1-30) unmodified (from UniProt P68431 2-31) (peptide)
Kd: 3.4 µM
